In PMC5201024 one finds response (IP/Input ratio (arbitrary units)) data, which are given here for one substance.

This test concerns the target MST3/4 (endogenous MST3 and MST4, m10/m11). Description: co-immunoprecipitation (anti-Myc IP, immunoblot quantification). The settings on record: HeLa cells co-transfected with Myc-RHOA-Q63L and GFP-FAM65A full-length; n=3 independent experiments; read off a plot. For orientation: A western blot detects proteins with antibodies after separation by electrophoresis.

RHOA wild type (P61586) Q63L: the response (IP/Input ratio (arbitrary units)) turned out to be 4.6.
